Experimental data published in patent US20020098523A1 (CAMBRIDGE ANTIBODY TECHNOLOGY, published 2002).

B2: Mouse eotaxin (ligand, UniProt P48298 24-97, looked up)
chain: HPGSIPTSCCFIMTSKKIPNTLLKSYKRITNNRCTLKAIVFKTRLGKEICADPKKKWVQDATKHLDQKLQTPKP
notes: also called murine eotaxin

Tests used:
Human eotaxin [1] = molecular target: T1, Human eotaxin (human, UniProt P51671 24-97, 125-iodine label in the Flash Plate assays; site not given); test: cell-based or functional assay
Mouse eotaxin = molecular target: B2; test: cell-based or functional assay
Rhesus monkey eotaxin = Rhesus monkey eotaxin (rhesus monkey, UniProt Q8MIT7 24-97, limits assumed); test: cell-based or functional assay
Human eotaxin [2] = molecular target: T1, Human eotaxin; test: Flash Plate scintillation competition: soluble CAT-213 against coated CAT-212 (competitor) for [125I]eotaxin; mean of 4 estimates
Experimental: The Flash Plate assay was performed essentially as described in Example 6.

CAT-212 = molecular target: T2, CAT-212; test: Flash Plate scintillation competition: unlabelled mouse eotaxin against [125I]eotaxin for coated CAT-212; mean of two estimates
T2 construct: Human scFv; IMAC-purified soluble scFv in the Western blot and Flash Plate assays; FPLC-purified monomeric scFv in the chemotaxis assay
Experimental: Flash Plate™ was prepared as described in Example 6. Eleven serial one in three dilutions of unlabelled human and mouse Eotaxin (R&D) in Assay Buffer and mixed with ¹²⁵I-Eotaxin prepared at an estimated concentration of 30 pM and 100 μl added to the wells in duplicate. The plate was sealed and incubated at room temperature for two hours, counted and the data processed as described in Example 6.

T1 sequence (P51671 24-97 limits assumed): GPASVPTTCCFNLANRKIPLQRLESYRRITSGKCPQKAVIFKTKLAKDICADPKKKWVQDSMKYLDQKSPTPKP
Chain of Rhesus monkey eotaxin (Q8MIT7 24-97 limits assumed): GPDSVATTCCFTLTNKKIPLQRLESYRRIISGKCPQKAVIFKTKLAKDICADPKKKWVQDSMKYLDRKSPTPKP

B1: CAT-213 (antibody, V domains shown)
VH: QVQLVQSGGGVVQPGRSLRLSCAASGFTFSSYGMHWVRQAPGKGLEWVAVISYDGSIKHYADSVKGRFTISRDNSKNTLYLQMNSLRTDDTAVYYCAGDTDYGDIDPWGQGTMVTVSS
VL: DIQMTQSPSSVSASVGDRVTITCRASQDISSWLAWYQQKPGKAPKLLIYAASSLQSGVPSRFSGSGSGTDFTLTISSLQPEDFATYYCQQASSFPSITFGQGTRLEIKR
notes: Expressed in NS0 cells and purified on Protein A
With B1 the “IC50, inhibition of eotaxin-mediated chemotaxis of CCR3-transfected L1.2 cells” value (Human eotaxin [1]) was 700 pM, the “geometric mean IC50, inhibition of eotaxin-evoked shape change of human eosinophils” value (Human eotaxin [1]) was 714 pM and the “geometric mean IC50, inhibition of eotaxin-mediated chemotaxis of human eosinophils” value (Human eotaxin [1]) was 1.53 nM. For the same binder, the “geometric mean IC50, inhibition of mouse eotaxin-mediated chemotaxis of L1.2-CCR3 cells” value (Mouse eotaxin) was 2.63 µM, the “geometric mean IC50, inhibition of rhesus monkey eotaxin-mediated chemotaxis of L1.2-CCR3 cells” value (Rhesus monkey eotaxin) was 303 nM and the IC50 (Human eotaxin [2]) was 0.0593 nM.

B2 showed an IC50 (CAT-212) of 296 nM.
